The data set is described as follows: soluble on expression in E. coli; label from the status in PepcDB or PDB records.
“GSHMLEDPLRVSPMIREFVQSIDDREWQTQLFALLQKQTYNQVEVDLFELMCKVLDQNLFSQVDWARNTVFFKDLKVDDQMKLLQHSWSDMLVLDHLHHRIHNGLPDETQLNNGQVFNLMSLGLLGVPQLGDYFNELQNKLQDLKFDMGDYVCMKFLILLNPSVRGIVNRKTVSEGHDNVQAALLDYTLTCYPSVNDKFRGLVNILPEIHAMAVRGEDHLYTKHCAGSAPTQTLLMEMLHAKR”: the “soluble on expression in E. coli” value is given as “soluble”.

As to “GHMASGSLGELQESQSRLEAATKECQALEGRARAASEQARQLESEREALQQQHSVQVDQLRMQGQSVEAALRMERQAASEEKRKLAQLQVAYHQLFQEYDNHIKSSVVGSERKRGMQLEDLKQQLQQAEE”, the “soluble on expression in E. coli” value is reported as “soluble”.

Consider “SSEADQALVGPKADEPSPPAEEKDEGGGKEAAADAAPGPSASFRLMVTRREPAVKLQYAVSGLEPLSWSEDHRVSVSTARSVAVLELICDVHNPGQDLVIHRTSVPAPLNSCLLKVGSKTEVAECKEKFASSKDPTISQTFMLDRMFNPEGKALPPMRGFKYTSWSPMGCDANGRCLLAALTMDNRLTVQVNLNRLQWVQLVDLTEIYGDRLYETSYRLSKNEAPEGNLGDFAEFQRRHSMQTPVRMEWSSICTTQQVKHNNECRDVSS”, for which the “soluble on expression in E. coli” value was “soluble”.

Consider “AHHHHHHGSYLEEKDGIKFYSLNKLEKEGFDVHSLPYSLRILAENILRHLNNGVVSYEHIENIFERKGDIPFYPARIIMQDYTGVPAIVDLAAMRDYIKEKGKDPSRVNPKIPVELVVDHSLIVLYHGTKYSLYENMKEELKANRERYSLLKWASKAFENLKIIPPGKGIIHQINVEHLARIVFLEEGIAYPDTVLGTDSHTPMVNGIGVLGWGVGGIEAEAALLGLPYFMKVPEVVGVVLEGEPSPEITPTDIVLTITEKLRKVGVVGKFLEYTGNVEALSAFDRTVIANMTPENGATVGYFPIDEETIKFIRLTRGESKAKLVEKYAKLNMLYREETPEFDKTVKIDLSKVEPSVAGPFHPEDRIRLKDLKNSFKVEKKTKIRINGGEVEIEDGIIGLAAIASCTNTSNPYNILAAALVAKKAVELGLRTKPWVKTTFTPGSRVVVKYLEKLGLLSYLEALGFHVNGYACASCIGNSGPLKREVEEVIDKGIKVAAVISGNRNFRRRVNSKIDYTYLASPPLVVVFAIAGKITIDPSEPLAYDPNGKPVYLTDILPTKEEVKKLEEVIGEELYKEAYSSLFEDSIWKDIETEESPLFKWDEKSTYVRKPPFFDLTPITDDIKGARALIVLGDRISTDDISPAGKIDPESPAGRYLLSLGVKPEELHTYGARRGNHEVMMRGTFARFKMIYWPTGEEMSVYEAAMRYKERGIPLIIIAGKQYGVGSSRDWAAKGPALLGVKAVIAESFERIHRSNLVGMGIVPLQFKDPEVRKRLTGEEVYDIIGLKDLYPGKTIKVIARKPNGEVIEFETIARVETPIEVEYIRHGGILKYALELLG”, for which the “soluble on expression in E. coli” value is “not soluble”.

For “MADLFAGKPLINQEGKELDGGDALRGKKVVALYFSAMWCGSCRQFTPKLKRFYEALKAAGKEIEVVLVSRDREAEDLLEYLGHGGDWVAIPFGDERIQEYLKKYEVPTIPAFKLINNAGELLHDARADVTERGKDDAVALFDEWVEKFPAN”, the “soluble on expression in E. coli” value is reported as “not soluble”.

With “MDSNSTTSFLSNGYNHKETLKLIEDMKNSASNKGILLYVNSPGGGVYESDELYLKLKEYKEETGRPVWTYMSNQACSGGYYISMASDKVFSNRNAWTGSIGVIISLTNLKGLYDNLGIKGIYITSGRNKAMGAADLELTDEQRDILQSLVDEAYEQFVEIVAEGRKMTVEEVKRIADGRILSAKQALELNLIDEIATYDEVKEAFQRRAWKC”, the “soluble on expression in E. coli” value is recorded as “not soluble”.

Take “MGFTLKSLEFLQGVEPFRIDENHENEGASEEEEVLISAETDAGMSLMLEWKMRLSEDSDQCTTCNCPVDFGDRAVLLEHYQSLFHRTNTLRKARNMTVYTEEDFEGIENSENDLTSSQTTIGLESDDEEFDALLLPANRSFFIKNGSVFSVPRNILHVGERDVSSVTFLRPFDCAIFLWNGGHFAAAMFENDKMTVQKSFHRYVARAKQGGVQSQHDSGGKGAAKSAGAQLRRYNEQKMKEEIQSIMSSWKSRLQKTPLLFIRCAAYHRNIFFEADAGIETRDDRIRTIPFETKRPNIDEISDCWQRLQQVSEHGAESDFRAEMLEVREKRKKLARKVAGKKRKDGGMQMICEWSDDDENEDISKEKKTHHIKVRTIKKPEETVVQWPRLDDEWRQKTYNYVRQDSVEALKEHLASLNEDVTSEANDYLRNAKIPPNRSTFLHVSAANDARKCLKYFLEEVNCDSSTKDGAGLPPYSSSANSDVKSIFIDYRVKNETAGNWARTHIPEPKKKVELTEEQEREQAERKKEKKARQKEKEKLKKEIAKRDVEEMEERQKYVNMSEREKRALAVDRRLAGLPPILRCHQCGVQLPPTPFQYSHYNFCSTSCVAEHRKANPQ”: the “soluble on expression in E. coli” value is recorded as “not soluble”.

For the sequence “MSLKEGAWGIIGVPFDSTTSYHPGSRFGPIVVREASYGFEKYNTIFNTQLDNIFYDFGDVNVVFGNCKKTCDIIEDTVNELSDLKIKPLTIGGEHSLTIGVLNSLTKKYDDLTVVHLDAHRDLADTFIGELYSHASVMKRVHEMGVKELVQIGIRSASKEEEDFVKNQSNITTFKNNDVFHHLDNIEYYLSIIDTPIYLSIDMDVFDPSIAPTVGNPTPNGIAYGHIEAMLQTLSLKNVVGMDVVETAGDRLGDITAVSASKIIYDFLSLLEGHHHHHH”, the “soluble on expression in E. coli” value is “not soluble”.

As to “FSDILEDRIERLNACFAKAIARYNYPGVYRGVFPVKCNQERHLIEDLVKFGKPHQFGLEAGSKPELMIALAVLDTPGALLVCNGYKDREYIETAMLAQRLGQTPIIVLEQIEEVDLVIDANRQLGIKPILGVRAKLSTQGMGRWGASSGDRAKFGLTMPEVIEAVDKLREANLLDSLQLMHFHIGSQISAINVIKDAIQEASRIYVELAMLGADMKYLDVGGGLGVDYDGSQTNFYASKNYNMQNYANDIVAELKDTCAERQITVPTLISESGRAIAS”, the “soluble on expression in E. coli” value was “not soluble”.

Turning to “GPMNQLDQLGTRINLICNVFDKWIGQQDLNYNLFAVLYTLATEGSRTQKHIGEKWSLPKQTVSGVCKTLAGQGLIEWQEGEQDRRKRLLSLTETGKAYAAPLTESAQEFSDKVFATFGDKRTTRLFADLDALAEVMEKTISENKK”, the “soluble on expression in E. coli” value is reported as “soluble”.

As for “MGSDKIHHHHHHMRKKNYYLVSDGKLRRHENTIYFENEDGKRPIPINSIYAIYALGSLSITSKAISLLAKEGVCIHFFNRYGYYIGSFYPRESLVSGEVVLRQAEHHLDSEKRLHLARAFVEGAILNMARVLKKAEQDDSDVIASLQHLSSAKSIVELMGAEAAARNAYYTKFDEILKNFEFGKRSRMPPENEVNAMISFGNSLLYSAVLSEIYHTQLNPAISYLHEPSERRFSLALDIAELFKPVIVDRLIFYLVNNGIVTESDFDSRLGGILLSEEGKKKFVRHFNERLEKTVKHRKLNRKVSYQRLIRLECYKLVKHFTAVEKYSPFVMWW”, the “soluble on expression in E. coli” value was “not soluble”.

For the sequence “MGSDKIHHHHHHMREENYEEAAKAFNAAIEANPSDPIGFVNFGNLLGMVGELDKALIFFDKAIGLQEDCAPAYYGAGTIYYKQEKFEDGAKMFKQAIAHKLNETDVYFMLGMCYYQLGALPHAQANFQRALELDSNDVEARFQLGLCLAQLEQVDEAIKHLQLVVEHVPNHADAHFNLGVAYAYKDRLEEALAHFERAIHIQPEHILAHNGKKTVEEVLNKGANEA”, the “soluble on expression in E. coli” value is listed as “not soluble”.

As to “MSLNIAMTGATGYIGKHLSNYLTEKGGHRIIPLGRAMFREGMSGLLVQTLTHCDVIINLAGAPINQRWTPEHKQELFNSRITVTHRIIRALNAVKTKPKLMISASAVGYYPSLVESDEYTQTRGDGFLSDLCYAWEKEAKRCPQPTRLVITRFGVVLSPDGGAMQQMLRPLRATKVAAVIGPGTQPFPWIDIRDLCCAMAFFIENEELRGVFNLVAPQAVSQSTFTRAMGKAYHAWTTLIVPQAVFRLFYGEAASFLTAGQRVRPTRLLEAGFHFSVPTIEKLFEGEGHHHHHH”, the “soluble on expression in E. coli” value is given as “soluble”.

Consider “MAIQTVSTKPFANQKPGTSGLRNKVIAFQQPRYLENFVQSIFNSLDDIEGKTLVVGGDGRYYNDVAIQIIVRMAAANGFAKIIVGQNGIFSTPAVSCVIRKYEAFGGIVLSASHNPGGPKGDFGIKYNVSNGGPAPEKITDRIFSETKKINQYFISDAAKESVDLDKLGTYKIENTTVEVINSVIDYAELMQQIFDFDKVRELFAKGFKVRFDSMCAVSGPYAKYIFETLLKAPAGTVVNAQPLEDFGGFHPDPNPVNAEDLVKHMRSGKYDFGAASDGDADRNMIVGKQIDVSPSDSLAIMAANAHLIPVYSKGIKGVARSMPTSTAVDRVAESLRLPCFETPTGWKFFGNLLDAEKITLCGEESYGTGSNHIREKDGVWAVLFWLNLVAVTGKQVDQLVEEHWQKFGRNFYSRHDYEAIDTAIANSIIDSLRERLSSLVGAQLNDEKVAKADDFSYIDPIDGLVSNHQGIRIIFEDGSRIVFRLSGTGTQGATLRIYLEKYESDSSKFSIPTQQALASLIEIAEDLTNIKSLTGMTEPTVVT”, for which the “soluble on expression in E. coli” value is recorded as “not soluble”.

For “MSLGPIIMGQSLKAGIFFRIVTGSASMSSDRADGSSVTYSSNRSGNPDLRLIHYNDVYHVEPGSAEPVGGAPRFQSVINHYRSHPSFDGQPTPLTFFSGDAFNPSLESTVTKGRHMVPFLNKAGTNVACVGNHDLDFGVAQFRHLRNQCQFPWLLANVLDPALGEDVPIANCEKTCMLTSSNGIKVGVIGLGEREWLGTINSLPPDLIYKSASKTAIELVPSLREQGAELIVAVTHQREPNDYKLAESIPYGMIDIILGGHDHFYGHAFLNGVHILRSGTDFKQLSYIEAFRKTDGRGWDFNIVRREGHHHHHH”, the “soluble on expression in E. coli” value is listed as “soluble”.

Take “MGSDKIHHHHHHMRKEKLYTGCLLLMALITGSCSEEENPEVRPATKPAEPYTSYYYYSYEAARQLSATDFALAEGQFTPGPTYIKGDTLFVANIQSGAFSLELYDRNKNRHLASLKSWKYKEAEQKFPDKIEAIGISGNRLYLANISSRIDVFDVRTLEFITRIGTGNWGDGINQMVHSHAMAITPDGNIMIRTKKNLLVYREADVTLENYQKVPFYCRSKGDGMDVNNGFHSHQMVQDSTGIVYLADFGQYGNQKIQAIDTTLIEKGDQKILIDTEKTLPLSFNPCGIALHENRMILSAQNGSLFIYDRTKGNWENSFKSVKGYTFKKPEKLLVDQNTLWVSDVNAQKLVEVKIYKNEIREY”: the “soluble on expression in E. coli” value is given as “not soluble”.

In the case of “MASRVDETTVPSYYYYVDPETTYTYQQPNPLQDLISVYGLDDISRQVARTNLDGTKAVKLRKSYKNQIADLSGKFSTIPTRENGKGGQIAHILFQNNPDMMIQPPQQGQNMSEQQWREQLRNRDIALFQPPNFDWDLCSSVLSQFERSYPSEFANQNQGGAQAPFDIDDLAFDLDGTGKSQSGSNSGNNSKKRKNKSSGSSMATPTHSDSHEDMKRRRLE”, the “soluble on expression in E. coli” value is listed as “soluble”.

As for “GMSENKKKFDKKGAKNMDEISKTLFAPIYPIIAENIINRFGITAGTCIDIGSGPGALSIALAKQSDFSIRALDFSKHMNEIALKNIADANLNDRIQIVQGDVHNIPIEDNYADLIVSRGSVFFWEDVATAFREIYRILKSGGKTYIGGGFGNKELRDSISAEMIRKNPDWKEFNRKNISQENVERFQNVLDEIGISSYEIILGDEGFWIIISKTDQEVI”, the “soluble on expression in E. coli” value is “soluble”.

For “MGSDKIHHHHHHMYEENIYIKNSEYEFDNNLKQLASYLNIPVSIVRPYKEDLTLYQYKKGQVIYHSTDQIKFVYFLVNGCILHESSNITGDNYLRLSKDENIFPMNFIFNETPAPYEICTALTDCKILTLPKDLLEYLCRKHNEIFESLFKKLNETIQFQVEYIMALRANSAKERIERILQILCLSIGDDNGEFYELKQIMTVQLISNLSGLNRKTTGEIIRELKTENIIYQDKRNWIIKK”, the “soluble on expression in E. coli” value was “not soluble”.
